# From publication PMC11753358 (Oncogene, 2024)
# Target: human EphA2-Fc, biotinylated (human, UniProt P29317 24-537, biotin (EZ-Link Sulfo NHS-LC-LC-Biotin, 1:1 molar ratio))
# Test: BLI
# Chain of human EphA2-Fc, biotinylated (P29317 24-537): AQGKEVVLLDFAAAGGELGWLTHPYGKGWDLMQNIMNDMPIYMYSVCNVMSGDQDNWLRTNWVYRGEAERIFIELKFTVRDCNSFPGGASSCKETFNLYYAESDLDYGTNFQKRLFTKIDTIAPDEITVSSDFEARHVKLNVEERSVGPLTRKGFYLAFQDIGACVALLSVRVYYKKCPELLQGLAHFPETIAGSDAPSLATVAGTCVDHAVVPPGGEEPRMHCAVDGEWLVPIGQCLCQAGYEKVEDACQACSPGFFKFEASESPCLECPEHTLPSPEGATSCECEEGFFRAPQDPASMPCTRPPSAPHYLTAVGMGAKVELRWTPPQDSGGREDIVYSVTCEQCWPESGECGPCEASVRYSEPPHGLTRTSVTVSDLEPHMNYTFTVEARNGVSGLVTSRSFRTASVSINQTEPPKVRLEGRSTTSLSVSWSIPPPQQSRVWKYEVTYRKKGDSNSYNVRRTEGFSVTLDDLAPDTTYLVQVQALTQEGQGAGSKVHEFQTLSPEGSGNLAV
binder,measurement,value
"human ephrin-A1-Fc (recombinant soluble ephrin-A1 fused to human IgG1Fc) (Fc fusion, UniProt P20827 19-182, looked up) DRHTVFWNSSNPKFRNEDYTIHVQLNDYVDIICPHYEDHSVADAAMEQYILYLVEHEEYQLCQPQSKDQVRWQCNRPSAKHGPEKLSEKFQRFTPFTLGKEFKEGHSYYYISKPIHQHEDRCLRLKVTVSGKITHSPQAHDNPQEKRLAADDPEVRVLHSIGHS",binding result,binds
